Test system: Escherichia coli TOP10
Test: shrunken log2 fold change of peptide-encoding DNA abundance (4.5 h post-induction vs induction); higher = less antimicrobial activity (less host growth inhibition)
Conditions: time post-induction: 4.5 h; library: site-saturation at positions 5, 18, 19, 20
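Further: peptides expressed intracellularly from a pBAD plasmid library in pooled LB shake-flask culture, induced with 0.3% L-arabinose, DNA abundance read by NGS, three biological replicates, DESeq2 with apeglm shrinkage.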

Sequence: RRIRIRPPRLPRPRPRPSWNPRP
- shrunken log2 fold change: -0.49

Sequence: RRIRWRPPRLPRPRPRPPHYPRP
- shrunken log2 fold change: 0.24

Sequence: RRIRMRPPRLPRPRPRPMNKPRP
- shrunken log2 fold change: -0.0775

Sequence: RRIRVRPPRLPRPRPRPPGSPRP
- shrunken log2 fold change: 0.342

Sequence: RRIRVRPPRLPRPRPRPLDPPRP
- shrunken log2 fold change: -0.258

Sequence: RRIRVRPPRLPRPRPRPNGTPRP
- shrunken log2 fold change: -0.356

Sequence: RRIRNRPPRLPRPRPRPSGFPRP
- shrunken log2 fold change: 0.0185

Sequence: RRIRSRPPRLPRPRPRPDAQPRP
- shrunken log2 fold change: 0.406

Sequence: RRIRFRPPRLPRPRPRPSGWPRP
- shrunken log2 fold change: 0.187

Sequence: RRIRSRPPRLPRPRPRPVKNPRP
- shrunken log2 fold change: 0.291

Sequence: RRIRERPPRLPRPRPRPFVYPRP
- shrunken log2 fold change: -0.123

Sequence: RRIRWRPPRLPRPRPRPVKQPRP
- shrunken log2 fold change: -0.092

Sequence: RRIRLRPPRLPRPRPRPCIAPRP
- shrunken log2 fold change: -0.185

Sequence: RRIRDRPPRLPRPRPRPRNQPRP
- shrunken log2 fold change: -0.00575

Sequence: RRIRQRPPRLPRPRPRPMQLPRP
- shrunken log2 fold change: -0.15

Sequence: RRIRCRPPRLPRPRPRPLYKPRP
- shrunken log2 fold change: -0.275

Sequence: RRIRCRPPRLPRPRPRPNGCPRP
- shrunken log2 fold change: -0.0116

Sequence: RRIRVRPPRLPRPRPRPHGMPRP
- shrunken log2 fold change: -0.582

Sequence: RRIRKRPPRLPRPRPRPLYGPRP
- shrunken log2 fold change: -0.289

Sequence: RRIRIRPPRLPRPRPRPNGQPRP
- shrunken log2 fold change: -0.0848

Sequence: RRIRVRPPRLPRPRPRPPNDPRP
- shrunken log2 fold change: -0.17

Sequence: RRIRKRPPRLPRPRPRPLLMPRP
- shrunken log2 fold change: -0.109

Sequence: RRIRSRPPRLPRPRPRPDVHPRP
- shrunken log2 fold change: -0.0954

Sequence: RRIRCRPPRLPRPRPRPSQKPRP
- shrunken log2 fold change: -0.169

Sequence: RRIRFRPPRLPRPRPRPGRDPRP
- shrunken log2 fold change: 0.0984

Sequence: RRIRKRPPRLPRPRPRPVFGPRP
- shrunken log2 fold change: 0.176

Sequence: RRIRGRPPRLPRPRPRPQYYPRP
- shrunken log2 fold change: -0.399

Sequence: RRIRIRPPRLPRPRPRPTTYPRP
- shrunken log2 fold change: -0.868

Sequence: RRIRCRPPRLPRPRPRPRTIPRP
- shrunken log2 fold change: -0.154

Sequence: RRIRMRPPRLPRPRPRPEQNPRP
- shrunken log2 fold change: 2.47

Sequence: RRIRQRPPRLPRPRPRPSGFPRP
- shrunken log2 fold change: -0.102

Sequence: RRIRVRPPRLPRPRPRPKARPRP
- shrunken log2 fold change: 0.295

Sequence: RRIRDRPPRLPRPRPRPLMGPRP
- shrunken log2 fold change: 0.0162

Sequence: RRIRMRPPRLPRPRPRPLIGPRP
- shrunken log2 fold change: -0.0325

Sequence: RRIRGRPPRLPRPRPRPGHSPRP
- shrunken log2 fold change: -0.0314

Sequence: RRIRVRPPRLPRPRPRPWERPRP
- shrunken log2 fold change: 0.153

Sequence: RRIRYRPPRLPRPRPRPVSTPRP
- shrunken log2 fold change: -0.511

Sequence: RRIRPRPPRLPRPRPRPHYVPRP
- shrunken log2 fold change: -0.348

Sequence: RRIRFRPPRLPRPRPRPRPCPRP
- shrunken log2 fold change: 0.386

Sequence: RRIRFRPPRLPRPRPRPGRKPRP
- shrunken log2 fold change: 0.107

Sequence: RRIRDRPPRLPRPRPRPDLDPRP
- shrunken log2 fold change: 0.632

Sequence: RRIRLRPPRLPRPRPRPPSVPRP
- shrunken log2 fold change: -0.0845

Sequence: RRIRTRPPRLPRPRPRPNIDPRP
- shrunken log2 fold change: -0.32

Sequence: RRIRLRPPRLPRPRPRPFMSPRP
- shrunken log2 fold change: -1.39

Sequence: RRIRARPPRLPRPRPRPYRSPRP
- shrunken log2 fold change: -0.51

Sequence: RRIRWRPPRLPRPRPRPWYFPRP
- shrunken log2 fold change: 0.275

Sequence: RRIRIRPPRLPRPRPRPQWRPRP
- shrunken log2 fold change: -0.191

Sequence: RRIRFRPPRLPRPRPRPSQYPRP
- shrunken log2 fold change: -0.292

Sequence: RRIRMRPPRLPRPRPRPSDLPRP
- shrunken log2 fold change: -0.035

Sequence: RRIRCRPPRLPRPRPRPAMIPRP
- shrunken log2 fold change: 0.111

Sequence: RRIRYRPPRLPRPRPRPDVVPRP
- shrunken log2 fold change: 0.0135

Sequence: RRIRRRPPRLPRPRPRPRNMPRP
- shrunken log2 fold change: 0.112

Sequence: RRIRGRPPRLPRPRPRPLNLPRP
- shrunken log2 fold change: -0.018

Sequence: RRIRERPPRLPRPRPRPVSFPRP
- shrunken log2 fold change: -0.0647

Sequence: RRIRHRPPRLPRPRPRPKWKPRP
- shrunken log2 fold change: 0.107

Sequence: RRIRHRPPRLPRPRPRPHHGPRP
- shrunken log2 fold change: -0.755

Sequence: RRIRDRPPRLPRPRPRPIPGPRP
- shrunken log2 fold change: 0.171

Sequence: RRIRNRPPRLPRPRPRPENKPRP
- shrunken log2 fold change: -0.0669

Sequence: RRIRDRPPRLPRPRPRPAGYPRP
- shrunken log2 fold change: 0.528

Sequence: RRIRERPPRLPRPRPRPGLEPRP
- shrunken log2 fold change: -0.114

Sequence: RRIRARPPRLPRPRPRPEWCPRP
- shrunken log2 fold change: 0.72

Sequence: RRIRFRPPRLPRPRPRPRPEPRP
- shrunken log2 fold change: 0.477

Sequence: RRIRIRPPRLPRPRPRPMTGPRP
- shrunken log2 fold change: -0.4

Sequence: RRIRLRPPRLPRPRPRPNGAPRP
- shrunken log2 fold change: 0.0311

Sequence: RRIRRRPPRLPRPRPRPMASPRP
- shrunken log2 fold change: -0.00822

Sequence: RRIRGRPPRLPRPRPRPTTRPRP
- shrunken log2 fold change: 0.79

Sequence: RRIRCRPPRLPRPRPRPMDAPRP
- shrunken log2 fold change: -0.0146

Sequence: RRIRCRPPRLPRPRPRPSDFPRP
- shrunken log2 fold change: -0.203

Sequence: RRIRHRPPRLPRPRPRPFTCPRP
- shrunken log2 fold change: -0.231

Sequence: RRIRTRPPRLPRPRPRPTVRPRP
- shrunken log2 fold change: 2.09

Sequence: RRIRQRPPRLPRPRPRPMCVPRP
- shrunken log2 fold change: -0.308

Sequence: RRIRNRPPRLPRPRPRPTPGPRP
- shrunken log2 fold change: 0.312

Sequence: RRIRDRPPRLPRPRPRPGAKPRP
- shrunken log2 fold change: 0.592

Sequence: RRIRFRPPRLPRPRPRPWNVPRP
- shrunken log2 fold change: -0.157

Sequence: RRIRRRPPRLPRPRPRPGSWPRP
- shrunken log2 fold change: 0.189

Sequence: RRIRHRPPRLPRPRPRPEPIPRP
- shrunken log2 fold change: 0.021

Sequence: RRIRFRPPRLPRPRPRPTRFPRP
- shrunken log2 fold change: 0.429

Sequence: RRIRNRPPRLPRPRPRPFCIPRP
- shrunken log2 fold change: -0.186

Sequence: RRIRSRPPRLPRPRPRPPGKPRP
- shrunken log2 fold change: -0.0498

Sequence: RRIRHRPPRLPRPRPRPQSRPRP
- shrunken log2 fold change: -0.0223

Sequence: RRIRTRPPRLPRPRPRPWCHPRP
- shrunken log2 fold change: -0.732

Sequence: RRIRGRPPRLPRPRPRPKPWPRP
- shrunken log2 fold change: 0.914

Sequence: RRIRVRPPRLPRPRPRPWFNPRP
- shrunken log2 fold change: -0.437

Sequence: RRIRYRPPRLPRPRPRPAMCPRP
- shrunken log2 fold change: 0.00292

Sequence: RRIRTRPPRLPRPRPRPYRSPRP
- shrunken log2 fold change: 0.0429

Sequence: RRIRYRPPRLPRPRPRPEAGPRP
- shrunken log2 fold change: -0.0468

Sequence: RRIRFRPPRLPRPRPRPITLPRP
- shrunken log2 fold change: -0.274

Sequence: RRIRDRPPRLPRPRPRPYDIPRP
- shrunken log2 fold change: -0.00136

Sequence: RRIRGRPPRLPRPRPRPCSQPRP
- shrunken log2 fold change: 0.19

Sequence: RRIRLRPPRLPRPRPRPYIWPRP
- shrunken log2 fold change: -0.017

Sequence: RRIRFRPPRLPRPRPRPDRSPRP
- shrunken log2 fold change: 0.0602

Sequence: RRIRNRPPRLPRPRPRPPTTPRP
- shrunken log2 fold change: 0.19

Sequence: RRIRYRPPRLPRPRPRPKNTPRP
- shrunken log2 fold change: -0.579

Sequence: RRIRDRPPRLPRPRPRPRTSPRP
- shrunken log2 fold change: 0.353

Sequence: RRIRARPPRLPRPRPRPHCTPRP
- shrunken log2 fold change: 1.18

Sequence: RRIRDRPPRLPRPRPRPHAAPRP
- shrunken log2 fold change: 0.458

Sequence: RRIRIRPPRLPRPRPRPGKHPRP
- shrunken log2 fold change: -0.222

Sequence: RRIRVRPPRLPRPRPRPWNDPRP
- shrunken log2 fold change: -0.0722

Sequence: RRIRMRPPRLPRPRPRPLLKPRP
- shrunken log2 fold change: 2.7

Sequence: RRIRERPPRLPRPRPRPGCMPRP
- shrunken log2 fold change: -0.00389

Sequence: RRIRDRPPRLPRPRPRPWCIPRP
- shrunken log2 fold change: -0.383

Sequence: RRIRYRPPRLPRPRPRPENFPRP
- shrunken log2 fold change: 0.00911

Sequence: RRIRMRPPRLPRPRPRPLETPRP
- shrunken log2 fold change: 2.02

Sequence: RRIRSRPPRLPRPRPRPKGQPRP
- shrunken log2 fold change: 0.0791

Sequence: RRIRQRPPRLPRPRPRPIEIPRP
- shrunken log2 fold change: -0.0062

Sequence: RRIRSRPPRLPRPRPRPHSMPRP
- shrunken log2 fold change: -0.521

Sequence: RRIRLRPPRLPRPRPRPKCYPRP
- shrunken log2 fold change: -0.414

Sequence: RRIRVRPPRLPRPRPRPWMRPRP
- shrunken log2 fold change: 0.731

Sequence: RRIRARPPRLPRPRPRPNNLPRP
- shrunken log2 fold change: -0.561

Sequence: RRIRERPPRLPRPRPRPFHFPRP
- shrunken log2 fold change: -0.787

Sequence: RRIRGRPPRLPRPRPRPLGDPRP
- shrunken log2 fold change: 0.624

Sequence: RRIRDRPPRLPRPRPRPIFVPRP
- shrunken log2 fold change: 0.0563

Sequence: RRIRNRPPRLPRPRPRPGNCPRP
- shrunken log2 fold change: -0.00183

Sequence: RRIRMRPPRLPRPRPRPEKMPRP
- shrunken log2 fold change: 1.68

Sequence: RRIRWRPPRLPRPRPRPHDPPRP
- shrunken log2 fold change: 0.23

Sequence: RRIRCRPPRLPRPRPRPWLVPRP
- shrunken log2 fold change: -0.16

Sequence: RRIRSRPPRLPRPRPRPECYPRP
- shrunken log2 fold change: 0.133

Sequence: RRIRPRPPRLPRPRPRPCSHPRP
- shrunken log2 fold change: -0.0663

Sequence: RRIRSRPPRLPRPRPRPVSRPRP
- shrunken log2 fold change: -0.0166

Sequence: RRIRTRPPRLPRPRPRPCHMPRP
- shrunken log2 fold change: -0.0872

Sequence: RRIRFRPPRLPRPRPRPPPFPRP
- shrunken log2 fold change: 0.608

Sequence: RRIRVRPPRLPRPRPRPQYWPRP
- shrunken log2 fold change: -0.265

Sequence: RRIRKRPPRLPRPRPRPGAFPRP
- shrunken log2 fold change: 0.369

Sequence: RRIRYRPPRLPRPRPRPFEQPRP
- shrunken log2 fold change: -0.382

Sequence: RRIRSRPPRLPRPRPRPGMWPRP
- shrunken log2 fold change: 0.0949

Sequence: RRIRSRPPRLPRPRPRPGAIPRP
- shrunken log2 fold change: 0.187

Sequence: RRIRCRPPRLPRPRPRPMDNPRP
- shrunken log2 fold change: -0.411

Sequence: RRIRGRPPRLPRPRPRPQVYPRP
- shrunken log2 fold change: 0.23

Sequence: RRIRKRPPRLPRPRPRPAHRPRP
- shrunken log2 fold change: 0.562

Sequence: RRIRRRPPRLPRPRPRPLWAPRP
- shrunken log2 fold change: 0.501

Sequence: RRIRFRPPRLPRPRPRPTNIPRP
- shrunken log2 fold change: -0.959

Sequence: RRIRHRPPRLPRPRPRPNRDPRP
- shrunken log2 fold change: -0.0852

Sequence: RRIRYRPPRLPRPRPRPTTHPRP
- shrunken log2 fold change: -0.647

Sequence: RRIRPRPPRLPRPRPRPMRAPRP
- shrunken log2 fold change: 0.788

Sequence: RRIRKRPPRLPRPRPRPRGLPRP
- shrunken log2 fold change: 0.41

Sequence: RRIRWRPPRLPRPRPRPHVIPRP
- shrunken log2 fold change: -0.13

Sequence: RRIRMRPPRLPRPRPRPIDFPRP
- shrunken log2 fold change: -0.00165

Sequence: RRIRRRPPRLPRPRPRPQNMPRP
- shrunken log2 fold change: -0.472

Sequence: RRIRFRPPRLPRPRPRPCSEPRP
- shrunken log2 fold change: 0.0135

Sequence: RRIRPRPPRLPRPRPRPDDLPRP
- shrunken log2 fold change: -0.296

Sequence: RRIRKRPPRLPRPRPRPNAPPRP
- shrunken log2 fold change: 0.449

Sequence: RRIRQRPPRLPRPRPRPTINPRP
- shrunken log2 fold change: -0.362

Sequence: RRIRFRPPRLPRPRPRPDSLPRP
- shrunken log2 fold change: -0.204

Sequence: RRIRKRPPRLPRPRPRPRNAPRP
- shrunken log2 fold change: 0.57

Sequence: RRIRMRPPRLPRPRPRPQKKPRP
- shrunken log2 fold change: -0.0151

Sequence: RRIRFRPPRLPRPRPRPYWMPRP
- shrunken log2 fold change: -0.371

Sequence: RRIRARPPRLPRPRPRPSVKPRP
- shrunken log2 fold change: 0.133

Sequence: RRIRVRPPRLPRPRPRPSRPPRP
- shrunken log2 fold change: 0.196

Sequence: RRIRNRPPRLPRPRPRPNIQPRP
- shrunken log2 fold change: -0.748

Sequence: RRIRNRPPRLPRPRPRPRWMPRP
- shrunken log2 fold change: 0.0606
